Several values for one entry are separate records, joined by “and”; a condition that tells them apart may be missing. Equal values may be shown once.
B1: Recombinant human CERT S132A purified from Sf21 cells (natural protein, UniProt Q9Y5P4-2 1-598, looked up)
chain: MSDNQSWNSSGSEEDPETESGPPVERCGVLSKWTNYIHGWQDRWVVLKNNALSYYKSEDETEYGCRGSICLSKAVITPHDFDECRFDISVNDSVWYLRAQDPDHRQQWIDAIEQHKTESGYGSESSLRRHGAMVSLVSGASGYSATSTSSFKKGHSLREKLAEMETFRDILCRQVDTLQKYFDACADAVSKDELQRDKVVEDDEDDFPTTRSDGDFLHSTNGNKEKLFPHVTPKGINGIDFKGEAITFKATTAGILATLSHCIELMVKREDSWQKRLDKETEKKRRTEEAYKNAMTELKKKSHFGGPDYEEGPNSLINEEEFFDAVEAALDRQDKIEEQSQSEKVRLHWPTSLPSGDAFSSVGTHRFVQKVEEMVQNHMTYSLQDVGGDANWQLVVEEGEMKVYRREVEENGIVLDPLKATHAVKGVTGHEVCNYFWNVDVRNDWETTIENFHVVETLADNAIIIYQTHKRVWPASQRDVLYLSVIRKIPALTENDPETWIVCNFSVDHDSAPLNNRCVRAKINVAMICQTLVSPPEGNQEISRDNILCKITYVANVNPGGWAPASVLRAVAKREYPKFLKRFTSYVQEKTAGKPILF
notes: Ceramide transport protein CERT (GPBPΔ26), human, printed length 598 amino acids; The template plasmid is named pBS/nHAcFL-CERT, which may mean a further C-terminal FLAG tag; Mainly a homo-trimer by cross-linking and blue native PAGE; not shown: HA, N-terminal, kept
B2: Recombinant human CERT S132A/13A purified from Sf21 cells (natural protein, UniProt Q9Y5P4-2 1-598, looked up)
chain: MSDNQSWNSSGSEEDPETESGPPVERCGVLSKWTNYIHGWQDRWVVLKNNALSYYKSEDETEYGCRGSICLSKAVITPHDFDECRFDISVNDSVWYLRAQDPDHRQQWIDAIEQHKTESGYGSESSLRRHGAMVSLVSGASGYSATSTSSFKKGHSLREKLAEMETFRDILCRQVDTLQKYFDACADAVSKDELQRDKVVEDDEDDFPTTRSDGDFLHSTNGNKEKLFPHVTPKGINGIDFKGEAITFKATTAGILATLSHCIELMVAAEDSWQAALDAETEAAAATEEAYANAMTELAAASHFGGPDYEEGPNSLINEEEFFDAVEAALDRQDKIEEQSQSEKVRLHWPTSLPSGDAFSSVGTHRFVQKVEEMVQNHMTYSLQDVGGDANWQLVVEEGEMKVYRREVEENGIVLDPLKATHAVKGVTGHEVCNYFWNVDVRNDWETTIENFHVVETLADNAIIIYQTHKRVWPASQRDVLYLSVIRKIPALTENDPETWIVCNFSVDHDSAPLNNRCVRAKINVAMICQTLVSPPEGNQEISRDNILCKITYVANVNPGGWAPASVLRAVAKREYPKFLKRFTSYVQEKTAGKPILF
notes: Ceramide transport protein CERT (GPBPΔ26), human, printed length 598 amino acids; The template plasmid is named pBS/nHAcFL-CERT, which may mean a further C-terminal FLAG tag; also called S132/13A; not shown: HA, N-terminal, kept

Experiments:
[1] = target: the molecule itself; assay: native gel or EMSA; blue native PAGE of purified CERT (10 ng), 1% digitonin, 0.25% CBB G-250, 4-16% Bis-Tris gel; anti-HA western blot
[2] = target: the molecule itself; assay: cross-linking; purified CERT (10.8 ng in 30 μL of 50 mM HEPES-NaOH pH 7.4) with EGS (0.1-1.6 mM) on ice for 2 h; SDS-PAGE (6%) and anti-HA western blot

| Protein | stoichiometry N [1] | stoichiometry N [2] |
| --- | --- | --- |
| B1 | 3 | – |
| B2 | – | 2 and 3 |
